In the supplement of paper PMC9732359:
± gives the uncertainty stated by the source.

Test: protein stability index of a GFP-peptide fusion (yeast GPS) (PSI 1-4); higher = more stable; sorted into four equal gates, so the index is relative within each strain
In short: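 Each library plasmid carries Cherry plus GFP with a tiled 17-residue yeast protein peptide fused downstream, and the pooled library was carried in yeast. Mid-log cultures in leucine-free medium were sorted into four equal gates by GFP/Cherry ratio. Reads from Illumina sequencing of PCR-amplified plasmids from each gate were assigned to strains by barcodes. Per peptide, the protein stability index was computed as the summed products of gate read frequency and gate number.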

Row | Sequence | protein stability index (doa10∆) | protein stability index (pdr5∆) | protein stability index (san1∆) | protein stability index (ubr1∆)
1 | RDVSDDVFDTLATYCPR [GRR1] | 3.02 ± 0.084 | 3.04 ± 0.071 | 3.05 ± 0.056 | 3.22 ± 0.06
2 | RDVYVFDKVEVQVRSVM [DIS3] | 2.92 ± 0.067 | 3 ± 0.068 | 3.33 ± 0.052 | 3.24 ± 0.071
3 | REIQIDAVLKIFSFHQD [SRB8] | 3.27 ± 0.08 | 3.12 ± 0.09 | 3.06 ± 0.052 | 3.04 ± 0.04
4 | REKLAEVYKAEKDAVSV [RPS24A] | 3.27 ± 0.11 | 3.17 ± 0.069 | 3.45 ± 0.054 | 3.33 ± 0.11
5 | REKVRKLSQYVQEMALG [FAS2] | 2.86 ± 0.11 | 3.41 ± 0.11 | 3.15 ± 0.071 | 3.24 ± 0.067
6 | REKYNMKGPAALWDVQF [ARP9] | 3.49 ± 0.073 | 3.59 ± 0.08 | 3.49 ± 0.062 | 3.45 ± 0.064
7 | RENVFFQSQQRRKDTSM [RPB9] | 3.07 ± 0.083 | 3.4 ± 0.11 | 3.34 ± 0.065 | 2.75 ± 0.15
8 | REQYETQVALNESEKDQ [UBP6] | 3.1 ± 0.069 | 2.66 ± 0.065 | 2.69 ± 0.067 | 2.91 ± 0.051
9 | RERIKRGAHVEKTMVKK [PRP8] | – | – | – | 2.78 ± 0.18
10 | RERIRKGLQIYQSSVQE [PRP8] | – | – | 1.81 ± 0.24 | –
11 | RESRIVSTEGNVPQTLA [RPL21A] | 2.13 ± 0.08 | 2.25 ± 0.082 | 2.94 ± 0.1 | 2.3 ± 0.095
12 | RFPTKFVTQFRHLRRTG [RET1] | 1.41 ± 0.078 | 1.73 ± 0.14 | – | 2.17 ± 0.068
13 | RGFFHLNEALLQCPMLY [CSN12] | 2.06 ± 0.071 | 2.2 ± 0.058 | 1.9 ± 0.13 | 1.99 ± 0.056
14 | RGGFGGRNRGRPNRRGP [RPS2] | 3.37 ± 0.095 | 3.28 ± 0.14 | 3.44 ± 0.077 | 3.4 ± 0.13
15 | RGREEAASFKKLYKTPI [PRE10] | 2.6 ± 0.17 | 3.06 ± 0.27 | 1.45 ± 0.2 | 2.97 ± 0.13
16 | RGTTAVLKESIVNICDI [PUP1] | – | 3.2 ± 0.22 | – | 1.79 ± 0.27
17 | RHLEKEGIIKPISKHSK [RPS25A] | 3.04 ± 0.084 | 3.28 ± 0.093 | 2.96 ± 0.084 | 3.01 ± 0.076
18 | RIATEASKLAAYNKKST [HTB1] | 3.21 ± 0.097 | 2.47 ± 0.24 | – | 2.94 ± 0.098
19 | RIFAIAFTRKQANQVKR [RPS1A] | 1.59 ± 0.018 | 1.66 ± 0.019 | 1.99 ± 0.031 | 1.98 ± 0.02
20 | RIKLATTSERVSNENKK [RRI1] | 2.88 ± 0.063 | 3.08 ± 0.071 | 2.94 ± 0.066 | 3.1 ± 0.11
21 | RISGLIYEEVRAVLKSF [HHF1] | 3.33 ± 0.14 | 3.13 ± 0.2 | 3.16 ± 0.11 | –
22 | RKANREEKLKANKEKKK [RPL24A] | 2.88 ± 0.074 | 1.98 ± 0.066 | 2.15 ± 0.087 | 2.31 ± 0.053
23 | RKDTVSREVLRYEEFAD [RPC40] | 3.38 ± 0.11 | 3.59 ± 0.15 | 3.32 ± 0.082 | 3.3 ± 0.11
24 | RKFALEKLYIFYKLNMP [SRP72] | 1.99 ± 0.046 | 1.79 ± 0.057 | 1.44 ± 0.085 | 1.29 ± 0.039
25 | RKLFPNWIKPSDSEIPP [PRP8] | 3.42 ± 0.16 | 2.89 ± 0.11 | 2.91 ± 0.069 | 2.97 ± 0.053
26 | RKPILLPDPKPLPLDLN [ITC1] | 2.34 ± 0.044 | 2.55 ± 0.045 | 2.52 ± 0.065 | 2.14 ± 0.04
27 | RKRVYNIKFLSKLEGTI [ESC2] | – | 3.51 ± 0.2 | – | 3.21 ± 0.16
28 | RKVVFPFQLDVADMLTP [UBP6] | 2.29 ± 0.11 | 2.02 ± 0.12 | 2.57 ± 0.078 | 2.05 ± 0.096
29 | RLECVKCKTRAQLTLKR [RPL42A] | 2.8 ± 0.096 | 2.46 ± 0.085 | 2.52 ± 0.14 | 2.54 ± 0.056
